B1: Antibody Ab2 (antibody, human IgG1, kappa, N297A)
heavy: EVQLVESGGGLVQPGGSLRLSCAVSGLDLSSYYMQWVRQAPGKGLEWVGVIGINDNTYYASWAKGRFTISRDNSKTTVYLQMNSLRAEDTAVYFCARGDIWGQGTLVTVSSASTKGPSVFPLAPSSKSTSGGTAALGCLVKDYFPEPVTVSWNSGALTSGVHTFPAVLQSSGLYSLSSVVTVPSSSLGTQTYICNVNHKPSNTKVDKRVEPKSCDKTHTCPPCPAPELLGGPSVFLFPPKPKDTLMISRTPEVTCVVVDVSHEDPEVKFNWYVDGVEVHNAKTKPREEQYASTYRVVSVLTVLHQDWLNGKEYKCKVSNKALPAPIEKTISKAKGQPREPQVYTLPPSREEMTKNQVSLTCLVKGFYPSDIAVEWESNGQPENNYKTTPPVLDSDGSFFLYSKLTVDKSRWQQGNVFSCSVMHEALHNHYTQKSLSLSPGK
light: QVLTQSPSSLSASVGDRVTINCQASQSVYDNNYLAWYQQKPGKVPKQLIYSTSTLASGVPSRFSGSGSGTDFTLTISSLQPEDVATYYCLGSYDCSSGDCFVFGGGTKVEIKRTVAAPSVFIFPPSDEQLKSGTASVVCLLNNFYPREAKVQWKVDNALQSGNSQESVTEQDSKDSTYSLSSTLTLSKADYEKHKVYACEVTHQGLSSPVTKSFNRGEC
notes: Humanized, full length, human gamma-1 and kappa constant regions
B2: Antibody Ab3 (antibody, human IgG1, kappa, N297A)
heavy: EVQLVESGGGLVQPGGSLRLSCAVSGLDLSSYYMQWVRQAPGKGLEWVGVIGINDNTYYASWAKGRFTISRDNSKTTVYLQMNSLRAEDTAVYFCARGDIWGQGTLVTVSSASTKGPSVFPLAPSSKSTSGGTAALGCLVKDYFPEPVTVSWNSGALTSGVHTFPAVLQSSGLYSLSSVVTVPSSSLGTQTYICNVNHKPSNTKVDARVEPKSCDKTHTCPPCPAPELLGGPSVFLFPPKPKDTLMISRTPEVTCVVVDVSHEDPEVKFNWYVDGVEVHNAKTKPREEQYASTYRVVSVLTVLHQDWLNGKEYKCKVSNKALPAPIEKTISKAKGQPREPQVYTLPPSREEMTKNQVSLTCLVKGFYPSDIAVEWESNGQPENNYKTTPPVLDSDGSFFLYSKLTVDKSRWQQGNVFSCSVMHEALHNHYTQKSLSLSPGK
light: QVLTQSPSSLSASVGDRVTINCQASQSVYDNNYLAWYQQKPGKVPKQLIYSTSTLASGVPSRFSGSGSGTDFTLTISSLQPEDVATYYCLGSYDCSSGDCFVFGGGTKVEIKRTVAAPSVFIFPPSDEQLKSGTASVVCLLNNFYPREAKVQWKVDNALQSGNSQESVTEQDSKDSTYSLSSTLTLSKADYEKHKVYACEVTHQGLSSPVTKSFNRGEC
notes: Humanized, full length; same variable regions as Ab2, heavy constant region differs (KVDARV instead of KVDKRV)
B3: Antibody Ab5 (antibody, human IgG1, kappa, N297A)
heavy: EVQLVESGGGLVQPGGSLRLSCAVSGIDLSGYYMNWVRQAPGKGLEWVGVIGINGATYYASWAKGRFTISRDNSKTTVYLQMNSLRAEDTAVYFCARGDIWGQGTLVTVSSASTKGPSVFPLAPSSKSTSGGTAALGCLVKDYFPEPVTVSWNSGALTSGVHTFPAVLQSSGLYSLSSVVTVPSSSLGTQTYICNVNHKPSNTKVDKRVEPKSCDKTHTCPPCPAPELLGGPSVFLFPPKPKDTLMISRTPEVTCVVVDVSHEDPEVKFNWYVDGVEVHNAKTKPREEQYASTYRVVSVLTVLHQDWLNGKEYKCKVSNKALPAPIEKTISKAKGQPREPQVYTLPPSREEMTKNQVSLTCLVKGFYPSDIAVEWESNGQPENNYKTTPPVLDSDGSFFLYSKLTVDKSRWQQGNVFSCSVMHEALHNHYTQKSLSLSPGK
light: QVLTQSPSSLSASVGDRVTINCQASQSVYHNTYLAWYQQKPGKVPKQLIYDASTLASGVPSRFSGSGSGTDFTLTISSLQPEDVATYYCLGSYDCTNGDCFVFGGGTKVEIKRTVAAPSVFIFPPSDEQLKSGTASVVCLLNNFYPREAKVQWKVDNALQSGNSQESVTEQDSKDSTYSLSSTLTLSKADYEKHKVYACEVTHQGLSSPVTKSFNRGEC
notes: as for B1
B4: Antibody Ab14 (antibody, human IgG1, kappa, N297A)
heavy: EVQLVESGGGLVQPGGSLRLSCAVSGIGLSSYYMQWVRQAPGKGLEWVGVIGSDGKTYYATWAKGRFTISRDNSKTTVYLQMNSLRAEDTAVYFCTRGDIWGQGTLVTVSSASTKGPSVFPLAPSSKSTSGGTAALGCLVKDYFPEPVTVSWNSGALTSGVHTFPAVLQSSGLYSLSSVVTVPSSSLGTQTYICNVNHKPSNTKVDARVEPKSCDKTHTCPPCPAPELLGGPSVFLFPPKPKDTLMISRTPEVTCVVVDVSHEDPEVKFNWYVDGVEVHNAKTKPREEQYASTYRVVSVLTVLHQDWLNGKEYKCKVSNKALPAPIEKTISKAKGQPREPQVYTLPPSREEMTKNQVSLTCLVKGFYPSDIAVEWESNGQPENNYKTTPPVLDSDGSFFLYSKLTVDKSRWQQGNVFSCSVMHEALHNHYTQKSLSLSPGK
light: QVLTQSPSSLSASVGDRVTINCQASQNVYNNNYLAWYQQKPGKVPKQLIYSTSTLASGVPSRFSGSGSGTDFTLTISSLQPEDVATYYCLGSYDCSRGDCFVFGGGTKVEIKRTVAAPSVFIFPPSDEQLKSGTASVVCLLNNFYPREAKVQWKVDNALQSGNSQESVTEQDSKDSTYSLSSTLTLSKADYEKHKVYACEVTHQGLSSPVTKSFNRGEC
notes: Humanized, full length; same variable regions as Ab10, heavy constant region differs (KVDARV instead of KVDKRV)
B5: Antibody Ab8 (antibody, human IgG1, kappa, N297A, V domains shown)
VH: EVQLVESGGGLVQPGGSLRLSCAVSGIDLSNHYMQWVRQAPGKGLEWVGVVGINGRTYYASWAKGRFTISRDNSKTTVYLQMNSLRAEDTAVYFCARGDIWGQGTLVTVSS
VL: QVLTQSPSSLSASVGDRVTINCQASQSVYNYNYLAWYQQKPGKVPKQLIYSTSTLASGVPSRFSGSGSGTDFTLTISSLQPEDVATYYCLGSYDCSTGDCFVFGGGTKVEIKR
notes: as for B1
B6: Antibody Ab6 (antibody, human IgG1, kappa, N297A)
heavy: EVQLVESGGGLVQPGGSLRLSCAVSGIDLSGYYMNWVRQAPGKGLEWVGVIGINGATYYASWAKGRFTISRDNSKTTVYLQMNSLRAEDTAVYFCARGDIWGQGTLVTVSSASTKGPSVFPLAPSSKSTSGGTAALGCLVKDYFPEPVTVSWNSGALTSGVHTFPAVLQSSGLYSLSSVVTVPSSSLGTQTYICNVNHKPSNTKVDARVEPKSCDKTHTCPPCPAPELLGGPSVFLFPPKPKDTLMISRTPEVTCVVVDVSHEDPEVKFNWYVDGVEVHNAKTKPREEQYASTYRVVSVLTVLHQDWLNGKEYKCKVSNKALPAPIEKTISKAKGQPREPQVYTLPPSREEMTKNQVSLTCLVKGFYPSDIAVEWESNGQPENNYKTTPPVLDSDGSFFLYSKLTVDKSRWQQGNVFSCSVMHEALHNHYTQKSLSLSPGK
light: QVLTQSPSSLSASVGDRVTINCQASQSVYHNTYLAWYQQKPGKVPKQLIYDASTLASGVPSRFSGSGSGTDFTLTISSLQPEDVATYYCLGSYDCTNGDCFVFGGGTKVEIKRTVAAPSVFIFPPSDEQLKSGTASVVCLLNNFYPREAKVQWKVDNALQSGNSQESVTEQDSKDSTYSLSSTLTLSKADYEKHKVYACEVTHQGLSSPVTKSFNRGEC
notes: Humanized, full length; same variable regions as Ab5, heavy constant region differs (KVDARV instead of KVDKRV)
B7: Antibody Ab10 (antibody, human IgG1, kappa, N297A)
heavy: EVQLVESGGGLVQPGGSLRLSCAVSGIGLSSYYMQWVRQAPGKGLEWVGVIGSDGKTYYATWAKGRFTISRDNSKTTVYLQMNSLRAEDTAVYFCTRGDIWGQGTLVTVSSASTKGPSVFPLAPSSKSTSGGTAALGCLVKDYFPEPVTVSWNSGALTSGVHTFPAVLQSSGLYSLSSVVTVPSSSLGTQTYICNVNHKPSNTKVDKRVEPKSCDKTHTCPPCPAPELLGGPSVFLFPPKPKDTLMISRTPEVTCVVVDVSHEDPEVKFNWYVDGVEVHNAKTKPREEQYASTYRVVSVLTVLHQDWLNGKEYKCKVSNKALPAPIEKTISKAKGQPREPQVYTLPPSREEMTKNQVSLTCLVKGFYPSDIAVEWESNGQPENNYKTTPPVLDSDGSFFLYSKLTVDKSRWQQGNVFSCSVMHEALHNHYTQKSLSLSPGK
light: QVLTQSPSSLSASVGDRVTINCQASQNVYNNNYLAWYQQKPGKVPKQLIYSTSTLASGVPSRFSGSGSGTDFTLTISSLQPEDVATYYCLGSYDCSRGDCFVFGGGTKVEIKRTVAAPSVFIFPPSDEQLKSGTASVVCLLNNFYPREAKVQWKVDNALQSGNSQESVTEQDSKDSTYSLSSTLTLSKADYEKHKVYACEVTHQGLSSPVTKSFNRGEC
notes: as for B1
B8: Antibody Ab12 (antibody, human IgG1, kappa, N297A, V domains shown)
VH: EVQLVESGGGLVQPGGSLRLSCAVSGIDVTNYYMQWVRQAPGKGLEWVGVIGVNGKRYYASWAKGRFTISRDNSKTTVYLQMNSLRAEDTAVYFCARGDIWGQGTLVTVSS
VL: QVLTQSPSSLSASVGDRVTINCRASQSVYYNNYLAWYQQKPGKVPKQLIYSTSTLASGVPSRFSGSGSGTDFTLTISSLQPEDVATYYCLGSYDCSNGDCFVFGGGTKVEIKR
notes: as for B1
B9: Antibody Ab1 (antibody, human IgG1, kappa, N297A, V domains shown)
VH: QSLEESGGRLVTPGTPLTLTCTVSGLDLSSYYMQWVRQAPGKGLEWIGVIGINDNTYYASWAKGRFTISRASSTTVDLKMTSLTTEDTATYFCARGDIWGPGTLVTVSS
VL: QVLTQTASPVSAAVGSTVTINCQASQSVYDNNYLAWYQQKPGQPPKQLIYSTSTLASGVSSRFKGSGSGTQFTLTISDLECADAATYYCLGSYDCSSGDCFVFGGGTEVVVKR
notes: Chimeric (rabbit variable regions, human gamma-1 and kappa constant regions), full length
B10: Antibody Ab9 (antibody, human IgG1, kappa, N297A, V domains shown)
VH: QSLEESGGRLVTPGTPLTLTCTVSGIGLSSYYMQWVRQSPGRGLEWIGVIGSDGKTYYATWAKGRFTISKTSSTTVDLRMASLTTEDTATYFCTRGDIWGPGTLVTVSS
VL: QVLTQTPSPVSAAVGSTVTINCQASQNVYNNNYLAWYQQKPGQPPKQLIYSTSTLASGVSSRFRGSGSGTQFTLTISDVQCDDAATYYCLGSYDCSRGDCFVFGGGTEVVVKR
notes: as for B9
B11: Antibody Ab7 (antibody, human IgG1, kappa, N297A, V domains shown)
VH: QEQLKESGGRLVTPGTSLTLTCTVSGIDLSNHYMQWVRQAPGKGLEWIGVVGINGRTYYASWAKGRFTISRTSSTTVDLKMTRLTTEDTATYFCARGDIWGPGTLVTVSS
VL: QVLTQTASPVSAAVGSTVTINCQASQSVYNYNYLAWYQQKPGQPPKQLIYSTSTLASGVSSRFKGSGSGTQFTLTISDVQCDDAATYYCLGSYDCSTGDCFVFGGGTEVVVKR
notes: as for B9
B12: Antibody Ab11 (antibody, human IgG1, kappa, N297A, V domains shown)
VH: QSLEESGGRLVTPGGSLTLTCTVSGIDVTNYYMQWVRQAPGKGLEWIGVIGVNGKRYYASWAKGRFTISKTSSTTVDLKMTSLTTEDTATYFCARGDIWGPGTLVTVSS
VL: QVLTQTASPVSPAVGSTVTINCRASQSVYYNNYLAWYQQKPGQPPKQLIYSTSTLASGVSSRFKGSGSGTQFTLTISDVQCDDAATYYCLGSYDCSNGDCFVFGGGTEVVVKR
notes: as for B9
B13: Antibody Ab4 (antibody, human IgG1, kappa, N297A, V domains shown)
VH: QSLEESGGRLVTPGTPLTLTCSVSGIDLSGYYMNWVRQAPGKGLEWIGVIGINGATYYASWAKGRFTISKTSSTTVDLKMTSLTTEDTATYFCARGDIWGPGTLVTVSS
VL: QVLTQTPSPVSAAVGSTVTINCQASQSVYHNTYLAWYQQKPGQPPKQLIYDASTLASGVPSRFSGSGSGTQFTLTISGVQCNDAAAYYCLGSYDCTNGDCFVFGGGTEVVVKR
notes: as for B9

Biological target: T1, Homo sapiens CGRP-alpha (Calcitonin Gene Related Peptide alpha) (Homo sapiens, C-terminal -NH2 as printed in the sequence (the text says "the N-terminal phenylalanine is amidated"))
T1 construct: Synthetic 37-residue peptide from American Peptides / Bachem; Coated directly on the plate in the recombinant-antibody ELISA; also called human CGRPα; CGRPα
T1 peptide: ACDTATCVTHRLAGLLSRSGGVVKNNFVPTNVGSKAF
Test: ELISA: CGRPα coated on plate, antibody dilution series, anti-human IgG Fc-peroxidase detection
Protocol: To characterize recombinant expressed antibodies for their ability to bind to human-CGRPα, antibody-containing solutions were tested by ELISA. All incubations were done at room temperature. Briefly, Immulon IV plagtes (Thermo Scientific) were coated with a CGRPα containing solution ([…] in PBS) for 2 hours. CGRPα-coated plates were then washed three times in wash buffer (PBS, 0.05% Tween-20). The plates were then blocked using a blocking solution (PBS, 0.5% fish skin gelatin, 0.05% Tween-20) for approximately one hour. The blocking solution was then removed and the plates were then incubated with a dilution series of the antibody being tested for approximately one hour. At the end of this incubation, the plate was washed three times with wash buffer and further incubated with a secondary antibody containing solution (Peroxidase conjugated affinipure F(ab′)2 fragment goat anti-human IgG, Fc fragment specific (Jackson Immunoresearch) for approximately 45 minutes and washed three times. At that point a substrate solution (TMB peroxidase substrate, BioFx) and incubated for 3 to 5 minutes in the dark. The reaction was stopped by addition of a HCl containing solution (0.5M) and the plate was read at 450 nm in a plate-reader.

Binding result, binds:
B1, B2, B3, B4, B5, B6, B7, B8, B9, B10, B11, B12, B13
